This note sets out measurements from publication PMC3351150.

By stoichiometry N is commonly meant a count of units in the complex or per binding partner.

The test addresses controller protein C.Esp1396I. As to the kind of experiment: crystal structure.

In turn, “controller protein C.Esp1396I (natural protein)” returned a stoichiometry N of 2.
